The supplement of paper PMC12855868

B1: library; numbered along this chain (parent)
chain: MAAAGGARLLRAASAVLGGPAGRWLHHAGSRAGSSGLLRNRGPGGSAEASRSLSVSARARSSSEDKITVHFINRDGETLTTKGKVGDSLLDVVVENNLDIDGFGACEGTLACSTCHLIFEDHIYEKLDAITDEENDMLDLAYGLTDRSRLGCQICLTKSMDNMTVRVPETVADARQSIDVGKTS

Variants of: B1
Test: scaled log2 fold change in cell abundance, elesclomol vs control (0 = silent mean, 1 = nonsense mean) (scaled log2 ratio); higher = higher viability under elesclomol (loss of FDX1 cuproptosis function)
Conditions: glucose 10 mM
[1] = with ABC1 FDX1 KO, elesclomol 5 nM, 14 days
[2] = with HEK293T FDX1 KO, elesclomol 40 nM, 11 days
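Also: variant abundance is its share of total variant reads in each endpoint sample, from next-generation sequencing of the integrated ORF PCR-amplified out of genomic DNA.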

Row | Variant | scaled log2 fold change [1] | scaled log2 fold change [2]
1 | MAAAGGARLLRAASAVLGGPAGRWLHHAGSRAGSSGLLRNRGPGGSAEASRSLSVSARARSSSEDKITVHFINRDGETLTTKGKVGDSLLDVVVENNLDIDGFGACEGTLACSTCHLIFEDVIYEKLDAITDEENDMLDLAYGLTDRSRLGCQICLTKSMDNMTVRVPETVADARQSIDVGKTS [H122V] | 0.297 | -0.437
2 | MAAAGGARLLRAASAVLGGPAGRWLHHAGSRAGSSGLLRNRGPGGSAEASRSLSVSARARSSSEDKITVHFINRDGETLTTKGKVGDSLLDVVVENNLDIDGFGACEGTLACSTCHLIFEDHIYEKLDAITDEENDMLDLAYGLTDRSRLGCQICLTKSMDNMTVRVAETVADARQSIDVGKTS [P168A] | 0.158 | -0.0417
3 | MAAAGGARLLRAASAVLGGPAGRWLHHAGSRAGSSGPLRNRGPGGSAEASRSLSVSARARSSSEDKITVHFINRDGETLTTKGKVGDSLLDVVVENNLDIDGFGACEGTLACSTCHLIFEDHIYEKLDAITDEENDMLDLAYGLTDRSRLGCQICLTKSMDNMTVRVPETVADARQSIDVGKTS [L37P] | 0.51 | 1.09
4 | MAAAGGARLLRAASAVLGGPAGRWLHHAGSRAGSSGLLRNRGPGGSAEASRSLSVSARARSSSEDKITVHFINRDGETLTTKGKVGDSLLDVVVENNLDIDGFGACEGTLACSTCHLIFEDHIYEKLDFITDEENDMLDLAYGLTDRSRLGCQICLTKSMDNMTVRVPETVADARQSIDVGKTS [A129F] | 0.044 | -0.227
5 | MAAAGGARLLRAASAVLGGPAGRWLHHAGSRAGSSGLLRNRGPGGSAEASRSLSVSARARSSSEDKITVHFINRDGETLTTKGKVGDSLLDVVVENNLDIDGFGACEGTLACSTCHLIFEDHIYEKLDAITDEENDMLDLAYGLTDRSRLGCQICLTKSMDNMTVRVPETWADARQSIDVGKTS [V171W] | 0.0569 | 0.292
6 | MAAAGGARLLRAASAVLGGPAGRWLHHAGSRAGSSGLLRNRGPGGSAEASRSLSVSARARSSLEDKITVHFINRDGETLTTKGKVGDSLLDVVVENNLDIDGFGACEGTLACSTCHLIFEDHIYEKLDAITDEENDMLDLAYGLTDRSRLGCQICLTKSMDNMTVRVPETVADARQSIDVGKTS [S63L] | 0.0558 | -0.251
7 | MAAAGGARLLRAASAVLGGPAGRWLHHAGSRAGSSGLLRNRGPGGSAEASRSLSVSARARSSSEDKITVHFINRDGETLTTKGKVGDSLLDVVVENNLDIDGFGACEGTLACSTCHLIFEDHIYEKLDAITDLENDMLDLAYGLTDRSRLGCQICLTKSMDNMTVRVPETVADARQSIDVGKTS [E133L] | -0.204 | 0.0198
8 | MAAAGGARLLRAASAVLGGPAGRWLHHAGSRAGSSGLLRNRGPGGSAEASRSLSVSARARSSSEDKITVHFINRDGETLTTKGKVGDSLLDVVVENNLDIDGFGACEGTLACSTCHLIFEDHIYEKLDAITDEENDMLDLAYGLTDRSRLGCQICLTTSMDNMTVRVPETVADARQSIDVGKTS [K158T] | -0.0261 | 0.646
9 | MAAAGGARLLRAASAVLGGPAGRWLHHAGSRAGSSGLLRNRGPGGSAEASRSLSVSARARSSSEDKITVHFINRDGETLTTKGKVGDSLLDVVVENNLDIDGFGACEGTLACSTCHLIFEDHIYEKLDAITDEENDMLDLAYGLTDRSRLGCQICLTKSCDNMTVRVPETVADARQSIDVGKTS [M160C] | -0.675 | -0.515
10 | MAAAGGARLLRAASAVLGGPAGRWLHHAGSRAGSSGLLRNRGPGGSAEASRSLSVSARARSSSEDKITVHFINRDGETLTTKGKVGDSLLDVVVENNLDIDGFGACEGTLACSTCHLIFEDHIYEKLDAITDEENDMLDLAYGLTDRVRLGCQICLTKSMDNMTVRVPETVADARQSIDVGKTS [S148V] | 0.0179 | 0.35
11 | MAAAGGARLLRAASAVLGGPAGRWLHHAGSRAGSSGLLRNRGPGGSAEASRSLSVSARARSSSEDKITVHFINRDGETLTTKGKVGDSLLDVVVENNLDIDGFGACEGTLACSTCHLIFEDHIYEKLDAGTDEENDMLDLAYGLTDRSRLGCQICLTKSMDNMTVRVPETVADARQSIDVGKTS [I130G] | -0.279 | -0.433
12 | MAAAGGARLLRAASAVLGGPAGRWLHHAGSRAGSSGLLRNRGPGGSAEASRSLSVSARARSSSEDKITVHFINRDGETLRTKGKVGDSLLDVVVENNLDIDGFGACEGTLACSTCHLIFEDHIYEKLDAITDEENDMLDLAYGLTDRSRLGCQICLTKSMDNMTVRVPETVADARQSIDVGKTS [T80R] | -0.0268 | -0.512
13 | MAAAGGARLLRAASAVLGGPAGRWLHHAGSRAGSSGLLRNRGPGGSAEASRSLSVSARARSSSEDKITVHFINRDGETLTTKGKVGDSLLDVVVENNLDIDGFGACEGTLACSTCHLIFEDHIYEKLDAITDEENDMLDLAYGLTDRSRLGCQICLTKSMDNMTVRVPETVADARQSIDVGETS [K182E] | -0.363 | -1.19
14 | MAAAGGARLLRAASAVLGGPAGRWLHHAGSRAGSSGLLRNRGPGGSAEASRSLSVSARARSSSEDKITVHFINRDGETLTTKGKVGDSLLDVVVENNLDIDGFGACEGTLACSTCHLIFEDHIYEGLDAITDEENDMLDLAYGLTDRSRLGCQICLTKSMDNMTVRVPETVADARQSIDVGKTS [K126G] | 0.426 | 0.372
15 | MAAAGGARLLRAASAVLGGPAGRWLHHAGSRAGSSGLLRNRGPGGSAEASRSLSVSARARSSSEDKITVHFINRDGETLTTKGKVGDSLLDVVVENNLDIDGFGACEGTLACSTCHLIFEDHIAEKLDAITDEENDMLDLAYGLTDRSRLGCQICLTKSMDNMTVRVPETVADARQSIDVGKTS [Y124A] | -0.0589 | –
16 | MAAAGGARLLRAASAVLGGPAGRWLHHAGSRAGSSGLLRNRGPGGSAEASRSLSVSARARSSSEDKITVHFINRDGETLTTKGKVGDSLLDVVVNNNLDIDGFGACEGTLACSTCHLIFEDHIYEKLDAITDEENDMLDLAYGLTDRSRLGCQICLTKSMDNMTVRVPETVADARQSIDVGKTS [E95N] | 0.2 | –
17 | MAAAGGARLLRAASAVLGGPAGRWLHHAGSRAGSSGLLRNRGPGGSAEASRSLSVSARARSSSEDKITVHFINRDGETLTTKGKVGDSLLDVVVENTLDIDGFGACEGTLACSTCHLIFEDHIYEKLDAITDEENDMLDLAYGLTDRSRLGCQICLTKSMDNMTVRVPETVADARQSIDVGKTS [N97T] | -0.0494 | 0.415
